T1: OX40-Fc (human, UniProt P43489 29-214)
T1 construct: extracellular domain; hinge included for covalent assembly; also called OX40 receptor-Fc fusion protein; not shown: human Fc gamma 1 region including the hinge region
T1 sequence (looked up): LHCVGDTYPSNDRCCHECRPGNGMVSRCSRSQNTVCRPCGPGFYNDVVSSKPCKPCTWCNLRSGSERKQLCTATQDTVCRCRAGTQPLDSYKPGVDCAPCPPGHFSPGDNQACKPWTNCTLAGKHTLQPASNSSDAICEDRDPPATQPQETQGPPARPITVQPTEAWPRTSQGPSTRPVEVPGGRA

T2: CD27-Fc (human, UniProt P26842 20-191)
T2 construct: extracellular domain; hinge included for covalent assembly; also called CD27 receptor-Fc fusion protein; not shown: human Fc gamma 1 region including the hinge region
T2 sequence (looked up): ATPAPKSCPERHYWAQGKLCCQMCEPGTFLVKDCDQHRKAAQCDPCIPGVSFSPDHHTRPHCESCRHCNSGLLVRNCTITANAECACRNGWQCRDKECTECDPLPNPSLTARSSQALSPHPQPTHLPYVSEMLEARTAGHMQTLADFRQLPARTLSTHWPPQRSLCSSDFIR

T3: OX40 receptor on cells (human, UniProt P43489 29-277)
T3 sequence (looked up): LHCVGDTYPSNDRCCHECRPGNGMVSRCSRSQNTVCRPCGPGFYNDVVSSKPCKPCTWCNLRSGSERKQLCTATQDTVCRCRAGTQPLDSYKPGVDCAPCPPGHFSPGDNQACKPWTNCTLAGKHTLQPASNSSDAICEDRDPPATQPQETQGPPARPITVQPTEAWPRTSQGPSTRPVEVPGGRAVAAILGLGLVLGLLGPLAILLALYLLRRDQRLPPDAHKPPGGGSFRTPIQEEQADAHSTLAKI

B1: scCD40L-scOX40L (ligand)
chain: GDQNPQIAAHVISEASSKTTSVLQWAEKGYYTMSNNLVTLENGKQLTVKRQGLYYIYAQVTFCSNREASSQAPFIASLCLKSPGRFERILLRAANTHSSAKPCGQQSIHLGGVFELQPGASVFVNVTDPSQVSHGTGFTSFGLLKLGGGSGGGGDQNPQIAAHVISEASSKTTSVLQWAEKGYYTMSNNLVTLENGKQLTVKRQGLYYIYAQVTFCSNREASSQAPFIASLCLKSPGRFERILLRAANTHSSAKPCGQQSIHLGGVFELQPGASVFVNVTDPSQVSHGTGFTSFGLLKLGGGSGGGGDQNPQIAAHVISEASSKTTSVLQWAEKGYYTMSNNLVTLENGKQLTVKRQGLYYIYAQVTFCSNREASSQAPFIASLCLKSPGRFERILLRAANTHSSAKPCGQQSIHLGGVFELQPGASVFVNVTDPSQVSHGTGFTSFGLLKLGGGGSGGGTGGGGSQVSHRYPRIQSIKVQFTEYKKEKGFILTSQKEDEIMKVQNNSVIINCDGFYLISLKGYFSQEVNISLHYQKDEEPLFQLKKVRSVNSLMVASLTYKDKVYLNVTTDNTSLDDFHVNGGELILIHQNPGEFCVLGGGSGGGQVSHRYPRIQSIKVQFTEYKKEKGFILTSQKEDEIMKVQNNSVIINCDGFYLISLKGYFSQEVNISLHYQKDEEPLFQLKKVRSVNSLMVASLTYKDKVYLNVTTDNTSLDDFHVNGGELILIHQNPGEFCVLGGGSGGGQVSHRYPRIQSIKVQFTEYKKEKGFILTSQKEDEIMKVQNNSVIINCDGFYLISLKGYFSQEVNISLHYQKDEEPLFQLKKVRSVNSLMVASLTYKDKVYLNVTTDNTSLDDFHVNGGELILIHQNPGEFCVL
notes: scDuokine from HEK293, FLAG-purified; VH leader left out; also called single-chain Duokine scCD40L-scOX40L; not shown: N-terminal FLAG tag
B2: scOX40L-scCD40L (ligand)
chain: QVSHRYPRIQSIKVQFTEYKKEKGFILTSQKEDEIMKVQNNSVIINCDGFYLISLKGYFSQEVNISLHYQKDEEPLFQLKKVRSVNSLMVASLTYKDKVYLNVTTDNTSLDDFHVNGGELILIHQNPGEFCVLGGGSGGGQVSHRYPRIQSIKVQFTEYKKEKGFILTSQKEDEIMKVQNNSVIINCDGFYLISLKGYFSQEVNISLHYQKDEEPLFQLKKVRSVNSLMVASLTYKDKVYLNVTTDNTSLDDFHVNGGELILIHQNPGEFCVLGGGSGGGQVSHRYPRIQSIKVQFTEYKKEKGFILTSQKEDEIMKVQNNSVIINCDGFYLISLKGYFSQEVNISLHYQKDEEPLFQLKKVRSVNSLMVASLTYKDKVYLNVTTDNTSLDDFHVNGGELILIHQNPGEFCVLGGGGSGGGTGGGGSGDQNPQIAAHVISEASSKTTSVLQWAEKGYYTMSNNLVTLENGKQLTVKRQGLYYIYAQVTFCSNREASSQAPFIASLCLKSPGRFERILLRAANTHSSAKPCGQQSIHLGGVFELQPGASVFVNVTDPSQVSHGTGFTSFGLLKLGGGSGGGGDQNPQIAAHVISEASSKTTSVLQWAEKGYYTMSNNLVTLENGKQLTVKRQGLYYIYAQVTFCSNREASSQAPFIASLCLKSPGRFERILLRAANTHSSAKPCGQQSIHLGGVFELQPGASVFVNVTDPSQVSHGTGFTSFGLLKLGGGSGGGGDQNPQIAAHVISEASSKTTSVLQWAEKGYYTMSNNLVTLENGKQLTVKRQGLYYIYAQVTFCSNREASSQAPFIASLCLKSPGRFERILLRAANTHSSAKPCGQQSIHLGGVFELQPGASVFVNVTDPSQVSHGTGFTSFGLLKL
notes: scDuokine from HEK293, FLAG-purified; VH leader left out; also called single-chain Duokine scOX40L-scCD40L; not shown: N-terminal FLAG tag
B3: scCD27L-scOX40L (ligand)
chain: SLGWDVAELQLNHTGPQQDPRLYWQGGPALGRSFLHGPELDKGQLRIHRDGIYMVHIQVTLAICSSTTASRHHPTTLAVGICSPASRSISLLRLSFHQGCTIASQRLTPLARGDTLCTNLTGTLLPSRNTDETFFGVQWVRPGGGSGGGSLGWDVAELQLNHTGPQQDPRLYWQGGPALGRSFLHGPELDKGQLRIHRDGIYMVHIQVTLAICSSTTASRHHPTTLAVGICSPASRSISLLRLSFHQGCTIASQRLTPLARGDTLCTNLTGTLLPSRNTDETFFGVQWVRPGGGSGGGSLGWDVAELQLNHTGPQQDPRLYWQGGPALGRSFLHGPELDKGQLRIHRDGIYMVHIQVTLAICSSTTASRHHPTTLAVGICSPASRSISLLRLSFHQGCTIASQRLTPLARGDTLCTNLTGTLLPSRNTDETFFGVQWVRPGGGGSGGGTGGGGSQVSHRYPRIQSIKVQFTEYKKEKGFILTSQKEDEIMKVQNNSVIINCDGFYLISLKGYFSQEVNISLHYQKDEEPLFQLKKVRSVNSLMVASLTYKDKVYLNVTTDNTSLDDFHVNGGELILIHQNPGEFCVLGGGSGGGQVSHRYPRIQSIKVQFTEYKKEKGFILTSQKEDEIMKVQNNSVIINCDGFYLISLKGYFSQEVNISLHYQKDEEPLFQLKKVRSVNSLMVASLTYKDKVYLNVTTDNTSLDDFHVNGGELILIHQNPGEFCVLGGGSGGGQVSHRYPRIQSIKVQFTEYKKEKGFILTSQKEDEIMKVQNNSVIINCDGFYLISLKGYFSQEVNISLHYQKDEEPLFQLKKVRSVNSLMVASLTYKDKVYLNVTTDNTSLDDFHVNGGELILIHQNPGEFCVL
notes: scDuokine from HEK293, FLAG-purified; VH leader left out; also called single-chain Duokine scCD27L-scOX40L; not shown: N-terminal FLAG tag

Assays:
OX40-Fc = target: T1, OX40-Fc; experiment: ELISA, coated receptor-Fc
Method: (§1) Receptor binding of the single-chain Duokines was analyzed by ELISA using fusion proteins of the extracellular region of CD40, CD27, 4-1BB and OX40, respectively, with the human Fcγ1 region including the hinge region for covalent assembly (CD40-Fc, CD27-Fc, 4-1BB-Fc, OX40-Fc). Receptor-Fc fusion proteins (200 ng/well) were coated overnight at 4° C. and remaining binding sites were blocked with PBS, 2% skimmed milk powder (2% MPBS). […] The interactions between scDuokine and receptor were dose-dependent with EC₅₀ values in the low nanomolar ranges (FIG. 11 AB, Tab. 2).

CD40-Fc [1] = target: T4, CD40-Fc (human, UniProt P25942 21-193); experiment: ELISA, coated receptor-Fc
T4 construct: extracellular domain; hinge included for covalent assembly; also called CD40 receptor-Fc fusion protein; not shown: human Fc gamma 1 region including the hinge region
Method: as §1

4-1BB-Fc = target: T5, 4-1BB-Fc (human, UniProt Q07011 24-186); experiment: ELISA, coated receptor-Fc
T5 construct: extracellular domain; hinge included for covalent assembly; also called 4-1BB receptor-Fc fusion protein; not shown: human Fc gamma 1 region including the hinge region

CD27-Fc [2] = target: T2, CD27-Fc; experiment: ELISA, coated receptor-Fc
CD40 receptor on cells = CD40 receptor on cells (human, UniProt P25942 21-277); experiment: cell-based or functional assay
OX40 receptor on cells = target: T3, OX40 receptor on cells; experiment: cell-based or functional assay
CD27-Fc [3] = target: T2, CD27-Fc; experiment: ELISA, coated receptor-Fc; remark: listed apart in the source
Method: as §1

CD40-Fc [4] = target: T4, CD40-Fc; experiment: ELISA, coated receptor-Fc; remark: listed apart in the source

T4 sequence (P25942 21-193 limits assumed): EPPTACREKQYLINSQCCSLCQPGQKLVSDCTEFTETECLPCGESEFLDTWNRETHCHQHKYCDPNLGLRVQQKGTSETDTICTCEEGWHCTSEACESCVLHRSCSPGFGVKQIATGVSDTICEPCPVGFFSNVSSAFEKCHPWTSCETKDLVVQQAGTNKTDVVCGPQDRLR
Sequence of CD40 receptor on cells (P25942 21-277): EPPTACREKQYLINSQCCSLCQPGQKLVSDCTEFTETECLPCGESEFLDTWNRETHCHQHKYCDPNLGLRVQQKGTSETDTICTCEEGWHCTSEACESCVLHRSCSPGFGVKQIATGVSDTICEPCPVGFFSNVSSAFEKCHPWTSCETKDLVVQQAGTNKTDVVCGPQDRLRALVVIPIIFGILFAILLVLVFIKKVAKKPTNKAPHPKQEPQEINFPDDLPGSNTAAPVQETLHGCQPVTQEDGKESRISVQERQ

Binder	EC50 (OX40-Fc) [nM]	EC50 (CD40-Fc [1]) [nM]	binding result (4-1BB-Fc)	binding result (CD27-Fc [2])	Receptor activation (EC50, nM) (CD40 receptor on cells) [nM]	Receptor activation (EC50, nM) (OX40 receptor on cells) [nM]	EC50 (CD27-Fc [3]) [nM]	binding result (CD40-Fc [4])
B1	1.33	40.2	no binding (tested: 100 nM (FIG. 10))	no binding (tested: 100 nM (FIG. 10))	9.54	0.57		
B2	2.13	6.74	no binding (tested: 100 nM (FIG. 10))	no binding (tested: 100 nM (FIG. 10))	3.22	0.51		
B3	286		no binding (tested: 100 nM (FIG. 10))			1.49	7.34	no binding (tested: 100 nM (FIG. 10))

From patent US20190276511A1 (BIONTECH RNA PHARMACEUTICALS, published 2019)
